Patent US20110124560A1 (University of Pennsylvania, published 2011)

Assays:
[1] = molecular target: the molecule itself; experiment: gel filtration of purified protein, fractions immunoblotted with anti-FOXP3 221D (self-association)
From the text: FIG. 2A is an image of an immunoblot and a corresponding graph of the relative amounts of FOXP3a detected by the immunoblot. To generate the immunoblot, purified His-tagged FOXP3a was size fractionated by gel filtration, and the fractions were subject to immunoblotting with anti-FOXP3 antibody. ImageJ software (http://rsb.info.nih.gov/ij/) was used for relative quantification of the bands.
Full length FOXP3a (the large isoform) with a 6× His tag was expressed in Sf9 insect cells and purified by Ni-NTA column. The purified His-tagged full length FOXP3a was size fractionated, followed by SDS-PAGE and immunoblotting of the individual fractions with anti-FOXP3 mAb 221D. Purified full length FOXP3a eluted from the gel filtration column as a dominant mixture of monomers, dimers, tetramers, and a detectable amount of oligomeric species (FIG. 2A).

[2] = molecular target: the molecule itself; experiment: co-immunoprecipitation from transfected HEK293T cells
From the text: Full-length FOXP3 E251 and K250 deletion mutants were created by site-directed mutagenesis and subcloned into mammalian expression vectors containing either myc or HA epitope tags at the N-terminus. HEK293T cells were transfected with the myc-tagged wild type FOXP3, myc-tagged FOXP3-delE251, HA-tagged wild type FOXP3, or HA-tagged FOXP3-delE251 vectors as indicated (FIG. 2C). The HA-tagged wild type FOXP3 species was able to homo-associate with the myc-tagged wild type FOXP3, but not with the myc-tagged delE251 mutant, and vice versa (FIG. 2C). […] Thus the leucine zipper domain is essential for FOXP3 homo-association.

B1: His-tagged full length FOXP3a (other, human, UniProt Q9BZS1 1-431, looked up)
chain: MPNPRPGKPSAPSLALGPSPGASPSWRAAPKASDLLGARGPGGTFQGRDLRGGAHASSSSLNPMPPSQLQLPTLPLVMVAPSGARLGPLPHLQALLQDRPHFMHQLSTVDAHARTPVLQVHPLESPAMISLTPPTTATGVFSLKARPGLPPGINVASLEWVSREPALLCTFPNPSAPRKDSTLSAVPQSSYPLLANGVCKWPGCEKVFEEPEDFLKHCQADHLLDEKGRAQCLLQREMVQSLEQQLVLEKEKLSAMQAHLAGKMALTKASSVASSDKGSCCIVAAGSQGPVVPAWSGPREAPDSLFAVRRHLWGSHGNSTFPEFLHNMDYFKFHNMRPPFTYATLIRWAILEAPEKQRTLNEIYHWFTRMFAFFRNHPATWKNAIRHNLSLHKCFVRVESEKGAVWTVDELEFRKKRSQRPSRCSNPTPGP
notes: Expressed in Sf9 insect cells, purified by Ni-NTA; also called Full length FOXP3a (the large isoform) with a 6x His tag; purified His-tagged FOXP3a; not shown: 6x His tag
- binding result [1]: binds

B2: FOXP3 delK250 mutant (other, human, UniProt Q9BZS1 1-431, looked up, not shown: small tags and cut ends)
chain: MPNPRPGKPSAPSLALGPSPGASPSWRAAPKASDLLGARGPGGTFQGRDLRGGAHASSSSLNPMPPSQLQLPTLPLVMVAPSGARLGPLPHLQALLQDRPHFMHQLSTVDAHARTPVLQVHPLESPAMISLTPPTTATGVFSLKARPGLPPGINVASLEWVSREPALLCTFPNPSAPRKDSTLSAVPQSSYPLLANGVCKWPGCEKVFEEPEDFLKHCQADHLLDEKGRAQCLLQREMVQSLEQQLVLEEKLSAMQAHLAGKMALTKASSVASSDKGSCCIVAAGSQGPVVPAWSGPREAPDSLFAVRRHLWGSHGNSTFPEFLHNMDYFKFHNMRPPFTYATLIRWAILEAPEKQRTLNEIYHWFTRMFAFFRNHPATWKNAIRHNLSLHKCFVRVESEKGAVWTVDELEFRKKRSQRPSRCSNPTPGP
notes: Deletion, not a substitution: K250 is removed; also called myc-delK250 FOXP3a; FOXP3 K250 deletion mutant
- binding result [2]: no binding
